From article PMC3231483

Experiments:
thrombin [1] = target: T1, thrombin (human, UniProt P00734;P00734 328-363;364-622); experiment: guided mode resonance sensor (Langmuir linear regression); 0.25-1 uM thrombin; order of magnitude only; Aptamer immobilized from 1 uM in PBS; assay buffer, salt and temperature not given in the material (Tris-HCl pH 7.4 and sodium phosphate listed as reagents); re
thrombin [2] = target: T1, thrombin; experiment: guided mode resonance sensor (kinetic, Langmuir 1:1); 0.75 uM thrombin; ka 1.83e5 M-1s-1, kd 0.30e-1 s-1; Aptamer immobilized from 1 uM in PBS; assay buffer, salt and temperature not given in the material (Tris-HCl pH 7.4 and sodium phosphate listed as reagents); re
thrombin [3] = target: T1, thrombin; experiment: guided mode resonance sensor (kinetic, Langmuir 1:1); 0.25 uM thrombin; ka 2.06e5 M-1s-1, kd 1.05e-1 s-1; Aptamer immobilized from 1 uM in PBS; assay buffer, salt and temperature not given in the material (Tris-HCl pH 7.4 and sodium phosphate listed as reagents); re
thrombin [4] = target: T1, thrombin; experiment: guided mode resonance sensor (kinetic, Langmuir 1:1); 1.00 uM thrombin; ka 0.18e5 M-1s-1, kd 1.54e-1 s-1; Aptamer immobilized from 1 uM in PBS; assay buffer, salt and temperature not given in the material (Tris-HCl pH 7.4 and sodium phosphate listed as reagents); re
thrombin [5] = target: T1, thrombin; experiment: guided mode resonance sensor (kinetic, Langmuir 1:1); 0.50 uM thrombin; ka 1.52e5 M-1s-1, kd 0.61e-1 s-1; Aptamer immobilized from 1 uM in PBS; assay buffer, salt and temperature not given in the material (Tris-HCl pH 7.4 and sodium phosphate listed as reagents); re
thrombin [6] = target: T1, thrombin; experiment: guided mode resonance sensor (kinetic, Langmuir 1:1); 1.50 uM thrombin; ka 0.20e5 M-1s-1, kd 1.33e-1 s-1; Aptamer immobilized from 1 uM in PBS; assay buffer, salt and temperature not given in the material (Tris-HCl pH 7.4 and sodium phosphate listed as reagents); re

In the case of AGTCCGTGGTAGGGCAGGTTGGGGTGACT (structured_DNA, 5' NH2) [29-mer thrombin aptamer (TBA)], the Ka (thrombin [1]) is reported as ~1 10^6 M^-1, the Ka (thrombin [2]) is reported as 6.18 10^6 M^-1 and the Ka (thrombin [3]) is reported as 1.95 10^6 M^-1. The Ka (thrombin [4]) was 0.12 10^6 M^-1, the Ka (thrombin [5]) was 2.5 10^6 M^-1 and the Ka (thrombin [6]) was 0.15 10^6 M^-1.
